# In the DeepSol protein solubility set:
# Test: soluble on expression in E. coli; label from the status in PepcDB or PDB records
row,Sequence,soluble on expression in E. coli
1,MSLTPATRNNDSAVAVADAFDDTGDGPPTAARFAALAACWRQPDDDLQAALAAETDTTVDAQSLRAEYTRLFVGPGPSQSPPYESVYRDGERDADLGPVYGSSTQAVARWYSEYGLQPAASESAPPDHLATELEFAAYLREHEGAETLEQFLTEHPRNWVESFARRVRDADPKPFYRTLLNVTVDTLARADTPLEGHHHHHH,not soluble
2,MSLTQREEELARVLSGPEFATIRPDDLSVLDYSLLTLRRARLLNGAGFAANSLWLGRGDSARFPEFLRTMGWIGAYDLSLLNVLVSHQIAGDALLSHGGPEQLDAWAGEIDAMERMYCFAGSELLAGSDLKRVRTTAVYDPHGRSLVLNTPRPADSKVWTGNSLHTGDVAMVLARLEVGGRDEGHHWLRVPLREAGAVLPGVRIGRAEPKGGVTANQTGVLTFTDHRLPLSALMNRWASIDEDGTYRSPLPRHRRFEECLATFTHERLFPSVGAAYAQLLACTITTRFAAVKQTFGRPLIGHEHYRMRLSAAVGRSLAARHAMTALAEVAVARSAEGAPARDQVLHALISCGKSGCTGDARQTLAETRELCGGLGYHDANQIAPLLHDYEIAVTFGGDNTVLGYQATRFALREGHHHHHH,not soluble
3,MSLTQSHHDHVEKQFSSQASEYLTSTVHASGRDLQRLAVRLADYPDASVLDMGCGAGHASFVAAQNVSTVVAYDLSAHMLDVVAQAAEARQLKNITTRQGYVESLPFADNAFDIVISRYSAHHWHDVGAALREVNRILKLGGKLIVMDVMSPGHPVRDIWLQTVEALRDISHTRNYASGEWLTLISEANLIVDNLITDKLPLEFSSWVARMRTPEALVDAIRIYQQSASTEVKTYFALQNEGHHHHHH,not soluble
4,MSLTRFSVSPGDPMKKFVTLALTLSTLGASVASAQAVRVGMAYDAGGKADKSFNQSAYEGSQLAAKKLGIQVKDFEPSDPSQIIQGVRSFAKEGFDLTIGVGFSNNASITQVAKENPDLYFGLVDDVSTAKNVASLVFNEEQGSYLVGYLAAMNSSTGVVGFIGGMNIPLIHKFEAGYRAGVKAANPKATIISQYVGNTPEAWNNPGKAKEIAANMRGRGADIIFAAAGGSGNGLIDYIKQTPCLNASQLPKGVTFKSDNFKNVKKSAAYAKACTGNTRPMFFIGVDSNQNYLGDFDKNPATLNHGLTSMVKRVDNAVYALINEVKNDKFKAGERRFGLKDGGVAYAVDQYNKALLPAAQIAKVEAVKQQIIKGQIKVPTKEGGSHHHHHH,soluble
5,MSLTRGEARRPPQEFDRVLSSMCTTPHPAAREAAQAFLATNPGDPETYPAVAERERDAVALLGEIVGLSSPHGYIAAGGTEANLQAVRAARNRADADAVNVVAPASAHFSFQKAADVLGVELRLAPTDGDHRADVAAVADLVDGDTAVVVGVAGTTEYGRVDPIPALADIAAGVDANLHVDAAWGGFVLPFTDHDWSFADAPVNTMAIDPHKMGQAPVPAGGFLARDPETLDALAIETPYLESDTQPTLGGTRSGAGVAGALASLRALWPDGYREQYERTQGNAEYLAAELAARGYDVVDPELPLVAADMPDAEFQALREEGWRISRTASDALRVVCMPHVTREMLAAFLDDVDALAEGHHHHHH,not soluble
6,MSLTRLLIRDFRNIETADLALSPGFNFLVGANGSGKTSVLEAIYTLGHGRAFRSLQIGRVIRHEQEAFVLHGRLQGEERETAIGLTKDKQGDSKVRIDGTDGHKVAELAHLMPMQLITPEGFTLLNGGPKYRRAFLDWGCFHNEPGFFTAWSNLKRLLKQRNAALRQVTRYEQLRPWDKELIPLAEQISTWRAEYSAGIAADMADTCKQFLPEFSLTFSFQRGWEKETEYAEVLERNFERDRQLTYTAHGPHKADLRIRADGAPVEDTLSRGQLKLLMCALRLAQGEFLTRESGRRCLYLIDDFASELDDERRGLLASRLKATQSQVFVSAISAEHVIDMSDENSKMFTVEKGKITD,soluble
7,MSLTRRATSLLPPNATALERRLADTNARISDIPVDIGALMDPDAIPLRFLPWLAWHLGVETWKDYWPEQVKRARVKAAIRIARKKGTAAAVREVCASFGANVAMREWFEKTPKGRPGTFEILMTVGARDGIPATAEYVADIIAEVDRAKRGTAHYTFTQGFGATGTQRIGAGARVAVYRRLSLTDIEGHHHHHH,not soluble
8,MSLTSAPCPFRVNRIDLRVLPMRTRFPFRYGIASLVALPHLFVTVELEVNGQSVIGRTSEGLPPKWFTKDPGTPNELEVAGMLAVIQNAVRLATLHGREPVTWYPLVRQLAAEQKLWASRHDHPPLLWNLGISLMERALLDALCQAWQEPLHAVLRGPALGIRWSELHPSLADDAVPPFLADPPASQLALRHTIGLADPLTAADIPSGEEVNDGLPHTLDDCIRAYGLRYFKIKLSGNLEADRHRLTSVASVIRQHASPDFSATLDGNENFQDLTAFREWFEALNSDPGLKDFMPHVLWIEQPLHRDSALNPELFDAFRNWPEAPRLIIDESDGESGALQTALELGYSGGSHKNCKGILKGLANAATLHAFRAAHPERDFILSGEDLANVGPIPLTQDLAMQALLGIPHVERNGHHYFRGLSMYPDGIGVSAATLAAHPDLYHQLPDGLATLNIREGFIAIDSVNQAPFGTPVAPPVDQLPTVKEWILQGGLGALEGEGHHHHHH,soluble
9,MSLTSTATDSPLKYYDIGLNLTDPMFHGIYNGKQYHPADYVKLLERAAQRHVKNALVTGSSIAESQSAIELVSSVKDLSPLKLYHTIGVHPCCVNEFADASQGDKASASIDNPSMDEAYNESLYAKVISNPSFAQGKLKELYDLMNQQAKPHDTSFRSIGEIGLDYDRFHYSSKEMQKVFFEEQLKISCLNDKLSSYPLFLHMRSACDDFVQILERFVVGFTDEKDTFQLQKLGASSSSGFYKFHPDRKLVVHSFTGSAIDLQKLLNLSPNIFIGVNGCSLRTEENLAVVKQIPTERLLLETDAPWCEIKRTHASFQYLAKYQEVRDFEYPAFKSVKKNKLADKLNAEELYMVKGRNEPCNMEQVAIVVSEVKDVDLATLIDTTWKTTCKIFGEGHHHHHH,soluble
10,MSLTTFATEWEKQLELYPEEYRKAYRRVKRASEILLREPEPQVGLTPKEVIWTKNKTKLYRYIPKQEKTQRVPILLIYALINKPYIMDLTPGNSLVEYLVDRGFDVYMLDWGTFGLEDSHLKFDDFVFDYIAKAVKKVMRTAKSDEEGHHHHHH,not soluble
11,MSLTVKDILDAIQSPDSTPADIAALPLPESYRAITVHKDETEMFAGLETRDKDPRKSIHLDDVPVPELGPGEALVAVMASSVNYNSVWTSIFEPLSTFGFLERYGRVSDLAKRHDLPYHVIGSDLAGVVLRTGPGVNAWQAGDEVVAHCLSVELESSDGHNDTMLDPEQRIWGFETNFGGLAEIALVKSNQLMPKPDHLSWEEAAAPGLVNSTAYRQLVSRNGAGMKQGDNVLIWGASGGLGSYATQFALAGGANPICVVSSPQKAEICRAMGAEAIIDRNAEGYRFWKDENTQDPKEWKRFGKRIRELTGGEDIDIVFEHPGRETFGASVFVTRKGGTITTCASTSGYMHEYDNRYLWMSLKRIIGSHFANYREAWEANRLIAKGRIHPTLSKVYSLEDTGQAAYDVHRNLHQGKVGVLCLAPEEGLGVRDREKRAQHLDAINRFRNEGHHHHHH,soluble
12,MSLTVNISYLTDMDGVLIKEGEIIPGADRFLQSLTDNNVEFMVLTNNSIFTPRDLSARLKTSGLEIPPERIWTSATATAHFLKSQVKEGTAYVVGESGLTTALHTAGWILTDANPEFVVLGETRTYSFEAITTAINLILGGARFICTNPDVTGPSPSGILPATGSVAALITAATGAEPYYIGKPNPVMMRSALNTIGAHSEHTVMIGDRMDTDVKSGLEAGLSTVLVRSGISDDAEIRRYPFRPTHVINSIADLADEGHHHHHH,soluble
13,MSLTVSFVRIDDRMIHGQTVTRWAKEYPCDGLIAVNDAAAKNKVLIQAYKGASDKKTFVWSKEAFAAKSQKVSDSDSRYFLITKNPVDMKEILVDQGFVPGEVKEIIVGPANDRPGAVKLGNNQSITQEEADAIEAIEKAGYKVKFQLLPDVSIGYWSDFKGKFGEGHHHHHH,soluble
14,MSLTWKHYLSAWQNADLSNEWRRELQRVEEEQERFDGYLTFGTGGMRGKMGIGTKRINLFTIRRVAKGLGDYVVANEGAEMGVAIAFDSRHHSGAFAQETAKVLAAQGINVYLSDSIRPTPALSFCVREKGAFAGVVITASHNPSIYNGFKVYDKNGCQITLGVAQEIAGYLEKITDIFTIPVRELPNPLVTPLGKEMDDAYLNALTAVVSRPDLLADYGNELRICYTPLHGAGKELVMRGLLENGFSETTIIAEQSEPDGDFPTVISPNPEEENSFDLAKKLAKEIQADIILATDPDADRLGVAVLNKQATYQILTGNQLGALLLNYILEAKTPVTGADTMINTIVTGDLGGKIAYDFGINHIQTLTGFKFIGEKIAEMEGTEKNFLFGYEESYGYLIAPFVRDKDAVQAALLTAEMALFYKKEGTTLLGKLTNLFEKFGYHKEYLHTITLDDSDGITKMIQVIDALRKEPIFMPEITVVEDFLTSKRTNFVTMEVTNIELPKENVLKFYLMDSSWFAIRPSGTEPKCKIYFQTSGETEEIATKAMNELRKRVLAVWDEGHHHHHH,soluble
15,MSLVDMVNRPYERAFEQHALANPDVLCISADLTSSCEIDKFRDNHPDQFLSMGMAEQNMMSFCGGLGLAGFRPFVHTFGVFTYRRPYDQLMASIAYPRRKVRIMGFLPGITTPGGMTHQAIEDIAVMRSMPNMTILETGDATEVESICAAADSIDGPVYCRVLRGSVPRLFDTPIKVGEMREISLGDDVLIVTAGITTEEAMRATRALEAAGVSVRHLHLHTIKPFDAGALLDHIGAVRGGVITLENHVTEGGIGSLVAEVMADNGIGKKLRRLGLKDTYAHGGSRAYLMRYYGLDALALTRGVEDLLGQPLGITEEDLAQARVEAVHSLAKAEGEGHHHHHH,not soluble
16,MSLVQFASDTDPIVQPDSLSDAGAAAPVTREAVLGAFLRAHRERLAPADVGLPPGRRRRTPGLRREEVAQLAGLSATWVTWLEQGRPVALSARALASLAAALRLSRAERAYLFELAGRRDPQQAGGEAVPAAVMASVHAIRGPAYLLDRQWNALTWNAAAAELFIGWLDGDSQERNLLRAMFVSAPLQALVEDWPHRAGRLVAEFRAHSIRHADDAPMRALIEGLMAESPAFRAAWLSQDVEDREGGRRGFRHPALGALQFEQLTLWPAAAPGLMLVMLLPAEGHHHHHH,not soluble
17,MSLVSEAHIYLQKTNAIQQSSADLISILAGSGGNRDLLLLRDHLLSIDMMKLLDKDLHLREHFSDRRRDLLSRLWSKDAPDERFQRYYLSRIEVTYDDYAQVLSITAQAYSPEMARAIAQMMVTEGEKYMNALDHKTAHDQVSYIEQQVSALGVRMVAARKAVLAYQDAHGLVSPGNAVESISAIASRLDAELSDLMTKRAALAGYLTPAAPDIVQLDSQIAAVKSQLQAERQRVAAKRGGGLNAVAEEQGRLEAEAALADDMYKTALVALETARVESTRKIKSVAVLQSANLPVYPLEPRRIYNILEGHHHHHH,not soluble
18,MSLVSSLSFNFAPDFRPLAARMRPRTIAEYIGQAHLLGEGQPLRQALEAGRAHSMMLWGPPGTGKTTLAELIAHYSNAHVERISAVTSGVKDIRGAIEQAQAIAQSRGQRTLLFVDEVHRFNKSQQDAFLPFIEDGTVIFIGATTENPSFEINNALLSRARVYLIKRLSQDEIVHIITQALADTERGLGQRALNMPTDVLNKLAQLCDGDARKALNLLELMSDMVADGGTFTTEMLVQVAGHQVAGFDKNGDQFYDLISAVHKSIRGSAPDAALYWFCRILEGGGDPLYVARRLLAIASEDVGNADPAAMTIALNAWECFHRVGPAEGERAIAQAIVYLASAPKSNAVYTAFKAARALARETGQEAVPYHLRNAPTKLMAEMGFGAEYRYAHDEPNAYASGENYFPESLKESQFYFPTERGFEKRIKDKLVQLAQLDQASGRKREGHHHHHH,soluble
19,MSLVWTKTTYMGINCWKSVSDMWNYQEILSELQPSLVIEFGTRYGGSAVYFANIMRQIGQPFKVLTVDNSHKALDPRARREPDVLFVESSSTDPAIAEQIQRLKNEYPGKIFAILDSDHSMNHVLAEMKLLRPLLSAGDYLVVEDSNINGHPVLPGFGPGPYEAIEAYEDEFPNEGHHHHHH,not soluble
